# Values joined by “and” are separate entries in the source; they are usually repeats but may differ in a detail not shown here. Equal entries are not always repeated. “Also recorded” adds a separate entry of the source.
# B1: PEGPH20 (protein)
# chain: LNFRAPPVIPNVPFLWAWNAPSEFCLGKFDEPLDMSLFSFIGSPRINATGQGVTIFYVDRLGYYPYIDSITGVTVNGGIPQKISLQDHLDKAKKDITFYMPVDNLGMAVIDWEEWRPTWARNWKPKDVYKNRSIELVQQQNVQLSLTEATEKAKQEFEKAGKDFLVETIKLGKLLRPNHLWGYYLFPDCYNHHYKKPGYNGSCFNVEIKRNDDLSWLWNESTALYPSIYLNTQQSPVAATLYVRNRVREAIRVSKIPDAKSPLPVFAYTRIVFTDQVLKFLSQDELVYTFGETVALGASGIVIWGTLSIMRSMKSCLLLDNYMETILNPYIINVTLAAKMCSQVLCQEQGVCIRKNWNSSDYLHLNPDNFAIQLEKGGKFTVRGKPTLEDLEQFSEKFYCSCYSTLSCKEKADVKDTDAVDVCIADGVCIDAFLKPPMETEEPQIFY
# Experiments:
# [1] = tested on: PC3 prostate carcinoma cell line; conditions: 157,500 Units/kg (about 4.5 mg/kg) IV Q3Dx5; cited from earlier work
# [2] = Tolerability / musculoskeletal response to PEGPH20 in beagle dogs; format: in vivo, beagle dog
# [3] = tested on: 46 different cytokines, chemokines, acute-phase reactants, and other plasma inflammatory biomarkers; assay: Human inflammation multi-analyte profile (MAP) of patient plasma; format: in vivo; conditions: first two patients, single IV dose 0.05 mg/kg
# Protocol: The patient plasma samples also were analyzed using a human inflammation multi-analyte profile (MAP) of 46 different cytokines, chemokines, acute-phase reactants, and other plasma inflammatory biomarkers.
# [4] = tested on: soluble plasma hyaluronan; assay: Soluble plasma hyaluronan ELISA in BxPC3 model mice; format: in vivo; conditions: PEGPH20 4.5 mg/kg alone or + dexamethasone (high or low dose)
# Protocol: Plasma samples were additionally used to measure soluble plasma hyaluronan in the control group and each of the treatment groups (R&D Systems Catalog #DY3614; ELISA assay). In the vehicle control group, the plasma hyaluronan levels ranged from 2,000 to 4,000 ng/mL.
# [5] = tested on: HA catabolites; assay: HA catabolites in dogs; format: in vivo, beagle dog; conditions: after PEGPH20 administration, with or without dexamethasone
# Protocol: HA catabolites also were measured as described in Example 6.
# [6] = Dexamethasone premedication and PEGPH20-induced musculoskeletal observations
# Protocol: In one study, four naïve male beagle dogs were orally dosed with 4 mg/dose dexamethasone twice a day on the day of PEGPH20 administration. The first dexamethasone dose was given orally (PO) immediately before PEGPH20 intravenous (IV) administration. The second dexamethasone dose was given orally ˜8 hours later. On day 1, one dog was dosed with 3040 U/kg (0.08 mg/kg) PEGPH20 after Dexamethasone. Twenty four hours later (day 2), a second dog was dosed with 5700 U/kg (0.15 mg/kg) PEGPH20 after Dexamethasone. Twenty four hours later (day 3), a third dog was dosed with 11400 U/kg (0.3 mg/kg) PEGPH20 after Dexamethasone. Twenty four hours later (day 4), a fourth dog was dosed with 38000 U/kg (1.0 mg/kg) PEGPH20 after Dexamethasone. Blood was collected pre-PEGPH20 administration, and 0.5 hr, 4 h and 24 h post-PEGPH20 administration.
# PEGPH20 was administered IV with a 5 mL bolus injection via percutaneous needle puncture of the cephalic vein on study Days 1, 2 and/or 5. Dexamethasone was administered orally immediately before the PEGPH20 injection and approximately 8 hours post injection. All animals were re-dosed 3 days after the first injection except those in the PEGPH20 alone treatment group, which were not re-dosed.
# Animals treated with only one dose of PEGPH20 were evaluated at 96 hours, 120 hours, 6, 7, 8, and 9 days post-dose.
# [7] = tested on: pericellular and stromal HA; assay: Histochemical detection of HA in patient tumor biopsies; format: in vivo, human; conditions: colon cancer patient, liver metastasis, 1.6 μg/kg twice weekly + dexamethasone, post vs archived pre biopsy
# Protocol: An archived pre-dose biopsy (pre biopsy) obtained in 2007 (3.5 years prior to the PEGPH20 study) and a post-PEGPH20 Cycle 1 (3 days after the last dose) biospsy (Post biopsy) were obtained from a colon cancer patient with liver metastases. The patient post-treatment biopsy was obtained after one cycle of PEGPH20 treatment at 1.6 μg/kg on a twice weekly schedule with dexamethasone co-treatment.
# Briefly, the tumor biopsies were fixed in normal buffered formalin (NBF) and 5 μm sections cut and stained using a biotin labeled hyaluronan binding protein (HABP-bio) (Seikagaku, Japan). After washing to remove the primary reagent, a labeled secondary reagent was used. Nuclei were counter-stained using a DAPI (4′,6-diamidino-2-phenylindole) reagent. Micrographs were captured via a Nikon Eclipse TE2000U inverted fluorescent microscope coupled to a Insight FireWire digital camera (Diagnostic Instruments, Michigan) or ZEISS overhead scope (Carl Zeiss, Inc.) that has the same imaging system.
# [8] = tested on: soluble plasma hyaluronan; assay: Soluble plasma hyaluronan ELISA in PC3 tumor-bearing mice; format: in vivo; conditions: PEGPH20 4.5 mg/kg alone or + dexamethasone (high or low dose)
# Protocol: Plasma samples were additionally used to measure soluble plasma hyaluronan in the control group and each of the treatment groups (R&D Systems Catalog DY3614; ELISA assay). In the vehicle control group, the plasma hyaluronan levels ranged from 800,000 to 900,000 ng/mL.
# [9] = tested on: pericellular hyaluronan; assay: Hyaluronan staining of PC3 tumor sections; format: in vivo, human (xenograft in athymic male nude mice); conditions: Day 14, dexamethasone low or high dose, PEGPH20 4.5 mg/kg, or both
# Protocol: Tumor tissues from the two satellite mice from all 6 treatment groups in Example 9A.1 above, were harvested by tissue biopsy on Day 14 and stained for the presence of hyaluronan. Tumor biopsies were fixed in 10% NBF for 48 hours, embedded in paraffin, and sectioned. Samples were probed for hyaluronan using a biotinylated HA-binding protein (HABP), then probed with FITC-labeled streptavidin for detection. The cell nuclei were counterstained with DAPI (4′,6-diamidino-2-phenylindole) reagent. Micrographs were then captured using a Zeiss Microscope (Thornwood, N.Y.) coupled with the Spot imaging program (Diagnostic Instruments, Inc).
# Hyaluronan expression in the sections was evaluated by the level of green fluorescent intensity in the sections.
# [10] = Plasma pharmacokinetics of PEGPH20 (hyaluronidase activity) in patients
# Protocol: Plasma samples were stored frozen, and concentrations of PEGPH20 were determined by measuring hyaluronidase activity using a modified turbidimetric assay as described in Example 4. The USP turbidimetirc method used for the determination of hyaluronidase activity awas based on the formation of an insoluble precipitate that occurs when HA binds with acidified serum. PEGPH20 concentrations were expressed as units of hyaluronidase activity (U/mL) as interpolated from a calibration curve. Activity was reported to the nearest 1 U/mL, and the analytical methods were applicable for measuring plasma hyaluronidase concentrations as low as 0.3125 U/mL.
# [11] = single 50 μg/kg dose, individual patients 1 and 2
molecule,measurement,setting,value
B1,"xenograft tumor growth inhibition, previously shown",[1],34-70%
same,reaction immediately post-dose after a break in dosing,"[2]; 3040 Units/kg IV on Day 17, 26 or 33",systemic anaphylactoid-like reaction
same,musculoskeletal effects after re-dose,"[2]; 3040 Units/kg IV on Day 59, antibody-positive dogs",No musculoskeletal effects were observed
same,"musculoskeletal responses, repeat daily dosing","[2]; Day 7 through Day 9, 3800 to 15200 Units/kg",No musculoskeletal responses were observed
same,"musculoskeletal responses, repeat daily dosing","[2]; Day 12, 60800 Units/kg (1.6 mg/kg), dog 288 IV",reduced mobility 2 hours after the 60800 Units/kg (1.6 mg/kg) dose with complete recovery within 10 hours post-dose
same,"musculoskeletal responses, repeat daily dosing","[2]; Days 4 through 6, 1520 to 3040 Units/kg, IV or SC","reduced mobility (reduced ability to walk or stand), overall decreased activity, and muscle stiffness in the neck, back and extremities upon palpation; also recorded: the severity of the responses decreased from Day 4 to Day 6"
same,resolution of musculoskeletal responses,"[2]; single dose 3040 U/kg on Day 1, three dogs",≤ 4 days
same,time of musculoskeletal response post-dose,"[2]; single dose 3040 U/kg, IV or SC, three dogs",≤ 23 h
same,musculoskeletal observations,"[2]; single dose 3040 Units/kg (0.08 mg/kg), IV or SC","reduced mobility (reduced ability to walk or stand) and tighness of muscles of the neck, back and extremities upon palpation; also recorded: reduced mobility (reduced ability to walk or stand), overall decreased activity, and muscle stiffness in the neck, back and extremities upon palpation"
same,musculoskeletal observations on the following day,[2]; single dose of either 0.08 mg/kg or 0.3 mg/kg,"reduced walking ability, difficulty standing, decreased activity and tightness of the muscles of the neck, back and extremities"
same,inflammation MAP findings,[3],No notable findings
same,plasma hyaluronan,[4],no detectable (below limit of quantitation) hyaluronan
same,histopathologic changes of knee joint or skeletal muscle,"IV twice weekly, 4 weeks",no associated histopathologic changes
same,clinical signs,monkeys administered PEGPH20,"hypoactivity, lethargy, disorientation, hunched posture and a decrease in limb joint angle"
same,HA catabolites,[5],appearance of HA catabolites
same,complete resolution of musculoskeletal observations post-dose,[6]; PEGPH20 0.3 mg/kg IV alone,approximately 72 hours
same,onset of musculoskeletal observations post-dose,[6]; PEGPH20 0.3 mg/kg IV alone,approximately 10 hours
same,musculoskeletal observations,[6]; PEGPH20 11400 Units/kg (0.3 mg/kg) IV alone,moderate to severe musculoskeletal observations
same,change in tumor HA by histochemical staining,[7],decrease in pericellular and stromal HA levels
same,plasma hyaluronan,[8],no detectable (below limit of quantitation) hyaluronan
same,pericellular hyaluronan staining of tumor sections,[9],almost completely absent
same,time course of plasma concentrations,[10]; 0.5 μg/kg to 1.5 μg/kg,concentrations fell below the limit of quantification (BQL) during the first day
same,plasma concentrations after dosing,"[10]; 0.5 μg/kg to 1.5 μg/kg, twelve patients",≤ 1.5 U/mL
same,CL,[10]; [11],2.44 mL/h/kg and 3.29 mL/h/kg
same,"V1 (mL/kg), volume of the central compartment",[10]; [11],57.96 mL/kg and 55.93 mL/kg
same,"t1/2α (hr), distribution half-life",[10]; [11],4.77 h and 2.47 h
same,plasma enzyme at 72 hours after administration,[10]; single IV dose 50 μg/kg,< 2 U/mL
same,plasma enzyme initially following administration,[10]; single IV dose 50 μg/kg,approximately 30 U/mL
same,terminal half-life,[10]; single IV dose 50 μg/kg,approximately 2 days
same,plasma half life,"[10]; single IV dose 50 μg/kg, two patients",28 to 48 h
